# In patent EP4803150A2 (Lyvgen Biopharma Holdings Limited, dated 2026):
# Where two headings read alike, the source gives them in different places.
# T1: CD19 (human, UniProt P15391 20-556)
# T1 construct: whole, on cells
# T1 sequence (looked up): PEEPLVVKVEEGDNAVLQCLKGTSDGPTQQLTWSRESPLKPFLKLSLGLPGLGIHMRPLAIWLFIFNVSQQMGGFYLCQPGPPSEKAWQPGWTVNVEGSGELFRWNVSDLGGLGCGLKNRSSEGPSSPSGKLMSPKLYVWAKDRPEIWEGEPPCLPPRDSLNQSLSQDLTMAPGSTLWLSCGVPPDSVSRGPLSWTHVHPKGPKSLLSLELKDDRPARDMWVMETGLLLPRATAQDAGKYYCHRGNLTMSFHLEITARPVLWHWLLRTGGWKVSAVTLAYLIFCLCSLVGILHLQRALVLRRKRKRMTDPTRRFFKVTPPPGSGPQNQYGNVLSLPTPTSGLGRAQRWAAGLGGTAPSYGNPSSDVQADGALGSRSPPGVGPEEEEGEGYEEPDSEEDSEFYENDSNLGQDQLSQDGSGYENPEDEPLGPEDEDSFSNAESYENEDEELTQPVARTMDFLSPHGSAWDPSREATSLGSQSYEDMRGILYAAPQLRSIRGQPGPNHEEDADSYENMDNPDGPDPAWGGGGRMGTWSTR
# B1: Ly2940 (bispecific antibody, human IgG1, kappa)
# chain 1: QVQLVQSGAEVKKPGASVKVSCKASGYTFTSYVMHWVRQKPGQGLEWIGYINPYNEGTESTDKFKGRATMTSDKSTSTVYMELSSLRSEDTAVYYCASIYYGYEGTYFGVWGQGTLVTVSSASTKGPSVFPLAPSSKSTSGGTAALGCLVKDYFPEPVTVSWNSGALTSGVHTFPAVLQSSGLYSLSSVVTVPSSSLGTQTYICNVNHKPSNTKVDKKVEPKSCDKTHTCPPCPAPELLGPSVFLFPPKPKDTLMISRTPEVTCVVVDVSHEDPEVKFNWYVDGVEVHNAKTKPREEQYNSTYRVVSVLTVLHQDWLNGKEYKCKVSNKALGAPIEKTISKAKGQPREPQVYTLPPSREEMTKNQVSLWCLVKGFYPSDIAVEWESNGQPENNYKTTPPVLDSDGSFFLYSKLTVDKSRWQQGNVFSCSVMHEALHNHYTQKSLSLSPGKGGGGSGGGGSGGGGSGGGGSQVQLVQSGAEVKKPGASVKVSCKASGYTFAGFEMHWVRQAPGQGLEWMGAIDPKTGGTDYNQKFKDRVTMTRDTSISTAYMELSRLRSDDTAVYYCARDLGYFDVWGQGTLVTVSS
# chain 2: QVQLVQSGAEVKKPGASVKVSCKASGYTFTSYVMHWVRQKPGQGLEWIGYINPYNEGTESTDKFKGRATMTSDKSTSTVYMELSSLRSEDTAVYYCASIYYGYEGTYFGVWGQGTLVTVSSASTKGPSVFPLAPSSKSTSGGTAALGCLVKDYFPEPVTVSWNSGALTSGVHTFPAVLQSSGLYSLSSVVTVPSSSLGTQTYICNVNHKPSNTKVDKKVEPKSCDKTHTCPPCPAPELLGPSVFLFPPKPKDTLMISRTPEVTCVVVDVSHEDPEVKFNWYVDGVEVHNAKTKPREEQYNSTYRVVSVLTVLHQDWLNGKEYKCKVSNKALGAPIEKTISKAKGQPREPQVYTLPPSREEMTKNQVSLSCAVKGFYPSDIAVEWESNGQPENNYKTTPPVLDSDGSFFLVSKLTVDKSRWQQGNVFSCSVMHEALHNRFTQKSLSLSPGKGGGGSGGGGSGGGGSGGGGSDIQMTQSPSSLSASVGDRVTITCRASQDIRSNLNWYQQKPGGAVKLLIYYTSRLHSGVPSRFSGSGSGTDYTLTISSLQPEDFATYFCQQSEKLPRTFGGGTKVEIR
# chain 3: EIVLTQSPATLSLSPGERATLSCRASSSVSYMHWYQQKPGQAPRPWIYATSNLASGIPARFSGSRSGTDYTLTISSLEPEDFAVYYCQQWSSNTLTFGGGTKVEIKRTVAAPSVFIFPPSDEQLKSGTASVVCLLNNFYPREAKVQWKVDNALQSGNSQESVTEQDSKDSTYSLSSTLTLSKADYEKHKVYACEVTHQGLSSPVTKSFNRGEC
# notes: B7H3/CD137; anti-CD137 Fv on C-terminal
# B2: Ly2823 (multi-specific antibody)
# chain 1: EVQLVESGGGLVKPGGSLKLSCEASRFTFSSYAMSWVRQTPEKRLEWVAAISGGGRYTYYPDSMKGRFTISRDNAKNFLYLQMSSLRSEDTAMYYCARHYDGYLDYWGQGTTLTVSSASTKGPSVFPLAPSSKSTSGGTAALGCLVKDYFPEPVTVSWNSGALTSGVHTFPAVLQSSGLYSLSSVVTVPSSSLGTQTYICNVNHKPSNTKVDKKVEPKSCGGGGSGGGGSGGGGSGGGGSEVQLVESGGGLVQPGGSLRLSCAASGFTFSTYAMNWVRQAPGKGLEWVGRIRSKYNNYATYYADSVKGRFTISRDDSKNSLYLQMNSLKTEDTAVYYCVRHGNFGNSYVSWFAYWGQGTLVTVSSGGGGSDKTHTCPPCPAPELLGPSVFLFPPKPKDTLMISRTPEVTCVVVDVSHEDPEVKFNWYVDGVEVHNAKTKPREEQYNSTYRVVSVLTVLHQDWLNGKEYKCKVSNKALGAPIEKTISKAKGQPREPQVYTLPPSREEMTKNQVSLWCLVKGFYPSDIAVEWESNGQPENNYKTTPPVLDSDGSFFLYSKLTVDKSRWQQGNVFSCSVMHEALHNHYTQKSLSLSPGKGGGGSGGGGSGGGGSGGGGSQVQLVQSGAEVKKPGASVKVSCKASGYTFAGFEMHWVRQAPGQGLEWMGAIDPKTGGTDYNQKFKDRVTMTRDTSISTAYMELSRLRSDDTAVYYCARDLGYFDVWGQGTLVTVSS
# chain 2: EVQLVESGGGLVKPGGSLKLSCEASRFTFSSYAMSWVRQTPEKRLEWVAAISGGGRYTYYPDSMKGRFTISRDNAKNFLYLQMSSLRSEDTAMYYCARHYDGYLDYWGQGTTLTVSSASTKGPSVFPLAPSSKSTSGGTAALGCLVKDYFPEPVTVSWNSGALTSGVHTFPAVLQSSGLYSLSSVVTVPSSSLGTQTYICNVNHKPSNTKVDKKVEPKSCGGGGSGGGGSGGGGSGGGGSQAVVTQEPSLTVSPGGTVTLTCRSSTGAVTTSNYANWVQQKPGQAPRGLIGGTNKRAPWTPARFSGSLLGGKAALTITGAQAEDEADYYCALWYSNLWVFGGGTKLTVLGGGGSDKTHTCPPCPAPELLGPSVFLFPPKPKDTLMISRTPEVTCVVVDVSHEDPEVKFNWYVDGVEVHNAKTKPREEQYNSTYRVVSVLTVLHQDWLNGKEYKCKVSNKALGAPIEKTISKAKGQPREPQVYTLPPSREEMTKNQVSLSCAVKGFYPSDIAVEWESNGQPENNYKTTPPVLDSDGSFFLVSKLTVDKSRWQQGNVFSCSVMHEALHNHYTQKSLSLSPGKGGGGSGGGGSGGGGSGGGGSDIQMTQSPSSLSASVGDRVTITCRASQDIRSNLNWYQQKPGGAVKLLIYYTSRLHSGVPSRFSGSGSGTDYTLTISSLQPEDFATYFCQQSEKLPRTFGGGTKVEIR
# chain 3: DIVMTQSHKFMSTSIGARVSITCKASQDVRTAVAWYQQKPGQSPKLLIYSASYRYTGVPDRFTGSGSGTDFTFTISSVQAEDLAVYYCQQHYGTPPWTFGGGTKLEIKRTVAAPSVFIFPPSDEQLKSGTASVVCLLNNFYPREAKVQWKVDNALQSGNSQESVTEQDSKDSTYSLSSTLTLSKADYEKHKVYACEVTHQGLSSPVTKSFNRGEC
# notes: B7H3/CD3/CD137
# B3: Ly2800 (multi-specific antibody)
# chain 1: QVQLQQPGAELVKPGASVKMSCKASGYTFTSYNMHWVKQTPGRGLEWIGAIYPGNGDTSYNQKFKGKATLTADKSSSTAYMQLSSLTSEDSAVYYCARSTYYGGDWYFNVWGAGTTVTVSAASVAAPSVFIFPPSDEQLKSGTASVVCLLNNFYPREAKVQWKVDNALQSGNSQESVTEQDSKDSTYSLSSTLTLSKADYEKHKVYACEVTHQGLSSPVTKSFNRGECGGGGSGGGGSGGGGSGGGGSEVQLVESGGGLVQPGGSLRLSCAASGFTFSTYAMNWVRQAPGKGLEWVGRIRSKYNNYATYYADSVKGRFTISRDDSKNSLYLQMNSLKTEDTAVYYCVRHGNFGNSYVSWFAYWGQGTLVTVSSGGGGSDKTHTCPPCPAPELLGPSVFLFPPKPKDTLMISRTPEVTCVVVDVSHEDPEVKFNWYVDGVEVHNAKTKPREEQYNSTYRVVSVLTVLHQDWLNGKEYKCKVSNKALGAPIEKTISKAKGQPREPQVYTLPPSREEMTKNQVSLWCLVKGFYPSDIAVEWESNGQPENNYKTTPPVLDSDGSFFLYSKLTVDKSRWQQGNVFSCSVMHEALHNHYTQKSLSLSPGKGGGGSGGGGSGGGGSGGGGSQVQLVQSGAEVKKPGASVKVSCKASGYTFAGFEMHWVRQAPGQGLEWMGAIDPKTGGTDYNQKFKDRVTMTRDTSISTAYMELSRLRSDDTAVYYCARDLGYFDVWGQGTLVTVSS
# chain 2: QVQLQQSGAELVRPGSSVKISCKASGYAFSSYWMNWVKQRPGQGLEWIGQIWPGDGDTNYNGKFKGKATLTADESSSTAYMQLSSLASEDSAVYFCARRETTTVGRYYYAMDYWGQGTTVTVSSASTKGPSVFPLAPSSKSTSGGTAALGCLVKDYFPEPVTVSWNSGALTSGVHTFPAVLQSSGLYSLSSVVTVPSSSLGTQTYICNVNHKPSNTKVDKKVEPKSCGGGGSGGGGSGGGGSGGGGSQAVVTQEPSLTVSPGGTVTLTCRSSTGAVTTSNYANWVQQKPGQAPRGLIGGTNKRAPWTPARFSGSLLGGKAALTITGAQAEDEADYYCALWYSNLWVFGGGTKLTVLGGGGSDKTHTCPPCPAPELLGPSVFLFPPKPKDTLMISRTPEVTCVVVDVSHEDPEVKFNWYVDGVEVHNAKTKPREEQYNSTYRVVSVLTVLHQDWLNGKEYKCKVSNKALGAPIEKTISKAKGQPREPQVYTLPPSREEMTKNQVSLSCAVKGFYPSDIAVEWESNGQPENNYKTTPPVLDSDGSFFLVSKLTVDKSRWQQGNVFSCSVMHEALHNHYTQKSLSLSPGKGGGGSGGGGSGGGGSGGGGSDIQMTQSPSSLSASVGDRVTITCRASQDIRSNLNWYQQKPGGAVKLLIYYTSRLHSGVPSRFSGSGSGTDYTLTISSLQPEDFATYFCQQSEKLPRTFGGGTKVEIR
# chain 3: QIVLSQSPAILSASPGEKVTMTCRASSSVSYIHWFQQKPGSSPKPWIYATSNLASGVPVRFSGSGSGTSYSLTISRVEAEDAATYYCQQWTSNPPTFGGGTKLEIKSSASTKGPSVFPLAPSSKSTSGGTAALGCLVKDYFPEPVTVSWNSGALTSGVHTFPAVLQSSGLYSLSSVVTVPSSSLGTQTYICNVNHKPSNTKVDKKVEPKSC
# chain 4: not shown
# notes: CD19/CD20/CD3/CD137
# How the values were obtained:
# CD137 [1] = target: T2, CD137 (human, UniProt Q07011 24-186); assay: FCM or ELISA, graded
# T2 construct: Whole on GS-H2-huCD137 reporter cells in the reporter assays; also called 4-1BB
# CD19 = target: T1, CD19; assay: CHO cells overexpressing CD19, graded
# CD137 [2] = target: T2, CD137; assay: FCM or ELISA, graded; remark: listed apart in the source
Binder,binding result (CD137 [1]),binding result (CD19),binding result (CD137 [2])
B1,binds,–,–
B2,binds,–,–
B3,–,binds,binds
